In experiment [1] the target is T1, Human CD47-His (constructed by GeneScience) (human, UniProt Q08722 19-139).
T1 construct: also called hCD47
Kind of experiment: SPR, Biacore T200, CD47-His coupled to chip, antibody as analyte. On the procedure: (§1) The affinities of antibodies with B2 structure and with FV1 structure were detected by Biacore T200 instrument. The specific protocols were as follows. Human PD-L1-His and human CD47-His were coupled to CMS biosensor chip (GE), and then the antibodies of different concentrations were flowed through the chip at a flow rate of 30 μL/min. The binding between the candidate antibody and antigen was performed with a binding time of 120 s and a dissociation time of 300 s. The kinetic fitting was performed using BIAevalution software (GE), and the results of affinity constants were obtained as shown in Table 2 and Table 3.
A general note: SPR reads the build-up and loss of mass on a sensor chip optically.

Experiment [2] concerns the target T1, Human CD47-His (constructed by …). In words: bridging ELISA of Example 3: PD-L1-mFc coated, purified antibody titrated, CD47-His as second antigen; paragraph 132 prints the value without a unit, the unit is from the sheet's axis Antibody(ug/ml). On the procedure: (§2) 1. Coating the first antigen: Human PD-L1-mFc (constructed by GeneScience, SEQ ID NO: 22) was diluted with PBS to 1 μg/mL, and then added to a 96-well microtiter plate at 50 μL per well and incubated overnight at 4° C.
(§3) 4. Adding the second antigen: Human CD47-His (constructed by GeneScience, SEQ ID NO: 23) was diluted with PBS to 10 μg/mL, and then added to the 96-well microtiter plate at 50 μL per well and incubated at 25° C. for 1 hour.
(§4) 8. Detection: After terminating the reaction, the microtiter plate was immediately put into the microplate reader. The OD value at 450 nm was measured, and the original data was saved for sorting.
On the technique in general: An ELISA detects its analyte on a solid surface through an enzyme-linked reagent.

In experiment [3] the target is Human PD-L1-mFc (constructed by GeneScience) (human). The description is as above. On the procedure: as §2, §3, §4
For a further experiment, the target named is T2, Human PD-L1-His (human, UniProt Q9NZQ7 19-238, limits assumed).
T2 construct: not shown: His tag
In words: SPR, Biacore T200, PD-L1-His coupled to chip, antibody as analyte. As to the method:
as §1

The target in experiment [4] is T3, human CD47 (human, UniProt Q08722 19-139, limits assumed).
T3 construct: also called hCD47
Kind of experiment: ELISA of transient expression product; no antigen named on the sheet; PD-L1 Ab and CD47 Ab are both flat, so read as the PD-L1/CD47 bridging ELISA of Example 3; no unit beside the EC50, unit taken from the axis Antibody(ug/ml).

For experiment [5], the target named is T4, human PD-L1 (human, UniProt Q9NZQ7 19-238, limits assumed).
T4 construct: also called hPD-L1
The description is as above.

The target in experiment [6] is T3, human CD47. Kind of experiment: ELISA of transient expression product; the sheet names no antigen and shows one curve per antibody; format not stated for this figure, read as the PD-L1/CD47 bridging ELISA of Example 3.
The target of experiment [7] is T4, human PD-L1. Described as above.

T2 sequence (Q9NZQ7 19-238 limits assumed): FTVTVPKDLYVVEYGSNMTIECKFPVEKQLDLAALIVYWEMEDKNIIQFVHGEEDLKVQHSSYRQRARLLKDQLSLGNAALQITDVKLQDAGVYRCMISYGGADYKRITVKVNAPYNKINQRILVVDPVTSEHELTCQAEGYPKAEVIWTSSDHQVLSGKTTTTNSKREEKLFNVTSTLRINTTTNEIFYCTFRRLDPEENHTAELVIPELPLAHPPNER
T4 sequence (Q9NZQ7 19-238 limits assumed): as above
T3 sequence (Q08722 19-139 limits assumed): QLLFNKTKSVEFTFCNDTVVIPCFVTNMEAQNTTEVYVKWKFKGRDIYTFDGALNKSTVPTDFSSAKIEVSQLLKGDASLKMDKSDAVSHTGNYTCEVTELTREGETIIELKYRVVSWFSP
T1 sequence (Q08722 other isoform, or with tags, fused parts or gaps limits assumed): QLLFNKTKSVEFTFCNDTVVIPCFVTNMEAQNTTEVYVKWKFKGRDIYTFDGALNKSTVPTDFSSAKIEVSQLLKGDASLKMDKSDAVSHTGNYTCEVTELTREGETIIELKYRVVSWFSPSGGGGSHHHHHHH
Human PD-L1-mFc (constructed by GeneScience) (human), sequence (chain, as listed by the source limits assumed): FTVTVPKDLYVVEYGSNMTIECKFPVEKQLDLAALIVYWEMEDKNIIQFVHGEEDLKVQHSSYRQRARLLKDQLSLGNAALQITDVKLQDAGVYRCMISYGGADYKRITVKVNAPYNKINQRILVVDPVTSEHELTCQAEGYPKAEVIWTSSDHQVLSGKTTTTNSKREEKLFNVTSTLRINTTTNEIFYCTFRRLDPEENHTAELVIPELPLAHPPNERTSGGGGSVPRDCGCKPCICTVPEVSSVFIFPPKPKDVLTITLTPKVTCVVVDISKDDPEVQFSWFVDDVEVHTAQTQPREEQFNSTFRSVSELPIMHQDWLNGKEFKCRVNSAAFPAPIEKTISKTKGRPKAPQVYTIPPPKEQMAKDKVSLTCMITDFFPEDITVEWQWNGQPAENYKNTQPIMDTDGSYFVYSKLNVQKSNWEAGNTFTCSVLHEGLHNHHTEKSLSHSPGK

B1: bivalent bispecific antibody with FV1 structure (H5+L5+H6+L6) (bispecific antibody, human IgG1, kappa)
heavy 1: not shown
light 1: DIQMTQSPSSLSASVGDRVTITCSASQDVTTAVAWYQQKPGKAPKLLIYSASFPYRGVPSRFSGSGSGTDFTLTISSLQPEDFATYYCQQYMYHPSTFGQGTKVEIKRTVAAPSVFIFPPSDEQLKSGTASVVCLLNNFYPREAKVQWKVDNALQSGNSQESVTEQDSKDSTYSLSSTLTLSKADYEKHKVYACEVTHQGLSSPVTKSFNRGEC
heavy 2: not shown
light 2: DVVMTQTPLSLPVSLGDQASISCRSSQSLVHSKGNTYLHWYLQKPGQSPKLLIYRVSNRFSGVPDRFSGSGSGTDFTLKISRVEAEDLGVYFCSQSTHVPFTFGSGTKLEIKLGGC
notes: It is IgG1-based with knob-into-hole CH3 domains; also called FV1 bispecific antibody
B1: the equilibrium dissociation constant (Kd) is 15 nM in experiment [1] and 0.271 nM in the experiment with Human PD-L1-His. The concentration giving a half-maximal response (EC50) worked out at 1.66 µg/mL in experiment [2], 1.66 µg/mL in experiment [3], 0.0887 µg/mL with human CD47 [4] and 0.0887 µg/mL with human PD-L1 [5]. The molecule further returned a dissociation rate constant (koff) with Human PD-L1-His of 0.000119 s⁻¹. In the experiment with Human PD-L1-His, this molecule returned an on-rate constant (kon) of 440000 M⁻¹ s⁻¹.

B2: FV2 (bispecific antibody, human IgG1, kappa)
chain 1: not shown
chain 2: B1 light 1
chain 3: not shown
chain 4: DVVMTQTPLSLPVSLGDQASISCRSSQSLVHSKGNTYLHWYLQKPGQSPKLLIYRVSNRFSGVPDRFSGSGSGTDFTLKISRVEAEDLGVYFCSQSTHVPFTFGSGTKLEIKSGGGGSASLGGC
notes: also called FV2 structure; H5+L5+H7+L7
Consider B2, for which the EC50 with human CD47 [4] and with human PD-L1 [5] was 0.186 µg/mL throughout.

B3: FV3 (bispecific antibody, human IgG1, kappa)
chain 1: not shown
chain 2: B1 light 1
chain 3: not shown
chain 4: DVVMTQTPLSLPVSLGDQASISCRSSQSLVHSKGNTYLHWYLQKPGQSPKLLIYRVSNRFSGVPDRFSGSGSGTDFTLKISRVEAEDLGVYFCSQSTHVPFTFGSGTKLEIKGGGGSGGGGSGGGGSASLGGC
notes: also called FV3 structure; H5+L5+H8+L8
Take B3: the EC50 with human CD47 [4] and with human PD-L1 [5] was 0.179 µg/mL in each case.

B4: FV4 (bispecific antibody, human IgG1, kappa)
chain 1: not shown
chain 2: B1 light 1
chain 3: not shown
chain 4: B2 chain 4
notes: also called FV4 structure; H5+L5+H9+L7
Take B4: the EC50 with human CD47 [4] and with human PD-L1 [5] was 0.146 µg/mL in each case.

B5: B4 (bispecific antibody)
chain 1: QVQLVQSGAEVKKPGASVKVSCKASGYTFTNYVLHWVRQAPGQRLEWMGYFNPYNDDSKYNEKFKGRVTITRDTSASTAYMELSSLRSEDTAVYYCARGGYYSMDYWGQGTLVTVSSGGGGSGGGGSGGGGSASDIVMTQTPLSLPVTPGQPASISCRASQSLAHSNGYTYLQWYLQKPGQSPQLLIYKVSKRFSGVPDRFSGSGSGTDFTLKISRVEAEDVGVYYCSQSTHVPYTFGQGTKVEIKASTKGPSVFPLAPSSKSTSGGTAALGCLVKDYFPEPVTVSWNSGALTSGVHTFPAVLQSSGLYSLSSVVTVPSSSLGTQTYICNVNHKPSNTKVDKKVEPKSCDK
chain 2: RTVAAPSVFIFPPSDEQLKSGTASVVCLLNNFYPREAKVQWKVDNALQSGNSQESVTEQDSKDSTYSLSSTLTLSKADYEKHKVYACEVTHQGLSSPVTKSFNRGECEVQLVESGGGLVQPGGSLRLSCAASYFPFSDSWIHWVRQAPGKGLEWVAWISPYGGSSYYADSVQDRFTISADTSKNTAYLQMNSLRAEDTAVYYCAKRHWPGGFDHWGQGTLVTVSSGGGGSGGGGSGGGGSASDIQMTQSPSSLSASVGDRVTITCSASQDVTTAVAWYQQKPGKAPKLLIYSASFPYRGVPSRFSGSGSGTDFTLTISSLQPEDFATYYCQQYMYHPSTFGQGTKVEIK
notes: also called B4 structure; H4+L4
On to B5, for which the “EC50 (read off the curve)” value with human CD47 [6] and in the experiment with human PD-L1 [7] was ~0.09 µg/mL throughout.

B6: B1 (bispecific antibody)
chain 1: ASTKGPSVFPLAPSSKSTSGGTAALGCLVKDYFPEPVTVSWNSGALTSGVHTFPAVLQSSGLYSLSSVVTVPSSSLGTQTYICNVNHKPSNTKVDKKVEPKSCDKQVQLVQSGAEVKKPGASVKVSCKASGYTFTNYVLHWVRQAPGQRLEWMGYFNPYNDDSKYNEKFKGRVTITRDTSASTAYMELSSLRSEDTAVYYCARGGYYSMDYWGQGTLVTVSSGGGGSGGGGSGGGGSASDIVMTQTPLSLPVTPGQPASISCRASQSLAHSNGYTYLQWYLQKPGQSPQLLIYKVSKRFSGVPDRFSGSGSGTDFTLKISRVEAEDVGVYYCSQSTHVPYTFGQGTKVEIK
chain 2: EVQLVESGGGLVQPGGSLRLSCAASYFPFSDSWIHWVRQAPGKGLEWVAWISPYGGSSYYADSVQDRFTISADTSKNTAYLQMNSLRAEDTAVYYCAKRHWPGGFDHWGQGTLVTVSSGGGGSGGGGSGGGGSASDIQMTQSPSSLSASVGDRVTITCSASQDVTTAVAWYQQKPGKAPKLLIYSASFPYRGVPSRFSGSGSGTDFTLTISSLQPEDFATYYCQQYMYHPSTFGQGTKVEIKRTVAAPSVFIFPPSDEQLKSGTASVVCLLNNFYPREAKVQWKVDNALQSGNSQESVTEQDSKDSTYSLSSTLTLSKADYEKHKVYACEVTHQGLSSPVTKSFNRGEC
notes: also called B1 structure; H1+L1
On to B6, for which the “EC50 (read off the curve)” value with human CD47 [6] and with human PD-L1 [7] was ~0.2 µg/mL throughout.

B7: bivalent bispecific antibody with B2 structure (H2+L2) (bispecific antibody)
heavy: ASTKGPSVFPLAPSSKSTSGGTAALGCLVKDYFPEPVTVSWNSGALTSGVHTFPAVLQSSGLYSLSSVVTVPSSSLGTQTYICNVNHKPSNTKVDKKVEPKSCDKEVQLVESGGGLVQPGGSLRLSCAASYFPFSDSWIHWVRQAPGKGLEWVAWISPYGGSSYYADSVQDRFTISADTSKNTAYLQMNSLRAEDTAVYYCAKRHWPGGFDHWGQGTLVTVSSGGGGSGGGGSGGGGSASDIQMTQSPSSLSASVGDRVTITCSASQDVTTAVAWYQQKPGKAPKLLIYSASFPYRGVPSRFSGSGSGTDFTLTISSLQPEDFATYYCQQYMYHPSTFGQGTKVEIK
light: QVQLVQSGAEVKKPGASVKVSCKASGYTFTNYVLHWVRQAPGQRLEWMGYFNPYNDDSKYNEKFKGRVTITRDTSASTAYMELSSLRSEDTAVYYCARGGYYSMDYWGQGTLVTVSSGGGGSGGGGSGGGGSASDIVMTQTPLSLPVTPGQPASISCRASQSLAHSNGYTYLQWYLQKPGQSPQLLIYKVSKRFSGVPDRFSGSGSGTDFTLKISRVEAEDVGVYYCSQSTHVPYTFGQGTKVEIKRTVAAPSVFIFPPSDEQLKSGTASVVCLLNNFYPREAKVQWKVDNALQSGNSQESVTEQDSKDSTYSLSSTLTLSKADYEKHKVYACEVTHQGLSSPVTKSFNRGEC
notes: The two chains form a heterodimer through a CL-hinge disulfide bond, and there is no Fc; also called B2 bispecific antibody; preferred antibody B2
Molecule B7 yielded a Kd in experiment [1] of 25.8 nM. In addition, the EC50 in experiment [2] was 0.564 µg/mL. Further, the concentration for a half-maximal effect (EC50) in experiment [3] was found to be 0.564 µg/mL. In addition, in the experiment with Human PD-L1-His, binding was characterised by a dissociation constant (Kd) of 0.109 nM, the koff amounted to 4.28e-05 s⁻¹ and the kon came out at 395000 M⁻¹ s⁻¹.

By Kd is commonly meant the concentration at which binding is half-saturated. A high value points to lower affinity. Usually EC50 stands for the concentration giving half of the maximal effect. The low end stands for higher potency in that assay, the high end for lower potency in that assay. Usually koff stands for the first-order rate constant of dissociation. Low readings indicate slow dissociation, high ones fast dissociation. As usually defined, the kon is the second-order rate constant of association. A high value points to fast association. Usually EC50 (read off the curve) stands for the concentration giving half of the maximal effect. Read a high EC50 (read off the curve) as weaker potency.

(Values after patent publication US20220073610A1 (CHANGCHUN GENESCIENCE PHARMACEUTICAL, published 2022).)
